# What was measured:
# serpins of rabbit plasma = experiment: cell-based or functional assay
# [1] = molecular target: serpins of normal human plasma; experiment: cell-based or functional assay
"Inactivation in Plasma (t1/2 Relative to wt), Rabbit (x (relative to wt)) (serpins of rabbit plasma)","Inactivation in Plasma (t1/2 Relative to wt), Human (x (relative to wt)) [1]",Binder
1,1,"wild-type human activated protein C, P04070 43-197; P04070 212-461 (enzyme, here or on the partner: Asn-linked carbohydrate at three sites; vitamin K-dependent gamma-carboxylation of nine glutamic acid residues within the amino-terminal 45 residues (gla-domain); one erythro-beta-hydroxy-Asp; Asn-linked carbohydrate) light: ANSFLEELRHSSLERECIEEICDFEEAKEIFQNVDDTLAFWSKHVDGDQCLVLPLEHPCASLCCGHGTCIDGIGSFSCDCRSGWEGRFCQREVSFLNCSLDNGGCTHYCLEEVGWRRCSCAPGYKLGDDLLQCHPAVKFPCGRPWKRMEKKRSHL heavy: LIDGKMTRRGDSPWQVVLLDSKKKLACGAVLIHPSWVLTAAHCMDESKKLLVRLGEYDLRRWEKWELDLDIKEVFVHPNYSKSTTDNDIALLHLAQPATLSQTIVPICLPDSGLAERELNQAGQETLVTGWGYHSSREKEAKRNRTFVLNFIKIPVVPHNECSEVMSNMVSENMLCAGILGDRQDACEGDSGGPMVASFHGTWFLVGLVSWGEGCGLLHNYGVYTKVSRYLDWIHGHIRDKEAPQKSWAP"
8.5,5.8,"activated human protein C derivative S11G:Q32E:N33D:L194S, P04070 43-197; P04070 212-461 (enzyme, here or on the partner: Asn-linked oligosaccharides; gamma-carboxy-glutamates in the gla-domain; one erythro-beta-hydroxy-Asp; Asn-linked oligosaccharide) light: ANSFLEELRHGSLERECIEEICDFEEAKEIFEDVDDTLAFWSKHVDGDQCLVLPLEHPCASLCCGHGTCIDGIGSFSCDCRSGWEGRFCQREVSFLNCSLDNGGCTHYCLEEVGWRRCSCAPGYKLGDDLLQCHPAVKFPCGRPWKRMEKKRSHL heavy: LIDGKMTRRGDSPWQVVLLDSKKKSACGAVLIHPSWVLTAAHCMDESKKLLVRLGEYDLRRWEKWELDLDIKEVFVHPNYSKSTTDNDIALLHLAQPATLSQTIVPICLPDSGLAERELNQAGQETLVTGWGYHSSREKEAKRNRTFVLNFIKIPVVPHNECSEVMSNMVSENMLCAGILGDRQDACEGDSGGPMVASFHGTWFLVGLVSWGEGCGLLHNYGVYTKVSRYLDWIHGHIRDKEAPQKSWAP"
> 20,13,"activated human protein C derivative S11G:Q32E:N33D:L194S:T254S, P04070 43-197; P04070 212-461 (enzyme, here or on the partner: Asn-linked oligosaccharides; gamma-carboxy-glutamates in the gla-domain; one erythro-beta-hydroxy-Asp; Asn-linked oligosaccharide) light: ANSFLEELRHGSLERECIEEICDFEEAKEIFEDVDDTLAFWSKHVDGDQCLVLPLEHPCASLCCGHGTCIDGIGSFSCDCRSGWEGRFCQREVSFLNCSLDNGGCTHYCLEEVGWRRCSCAPGYKLGDDLLQCHPAVKFPCGRPWKRMEKKRSHL heavy: LIDGKMTRRGDSPWQVVLLDSKKKSACGAVLIHPSWVLTAAHCMDESKKLLVRLGEYDLRRWEKWELDLDIKEVFVHPNYSKSTSDNDIALLHLAQPATLSQTIVPICLPDSGLAERELNQAGQETLVTGWGYHSSREKEAKRNRTFVLNFIKIPVVPHNECSEVMSNMVSENMLCAGILGDRQDACEGDSGGPMVASFHGTWFLVGLVSWGEGCGLLHNYGVYTKVSRYLDWIHGHIRDKEAPQKSWAP"

# The next lines start with the binder.
Binder,"Inactivation in Plasma (t1/2 Relative to wt), Rabbit (x (relative to wt)) (serpins of rabbit plasma)","Inactivation in Plasma (t1/2 Relative to wt), Human (x (relative to wt)) [1]"
"activated human protein C derivative H10Q:S11G:Q32E:N33D:L194S:T254S, P04070 43-197; P04070 212-461 (enzyme, here or on the partner: Asn-linked oligosaccharides; gamma-carboxy-glutamates in the gla-domain; one erythro-beta-hydroxy-Asp; Asn-linked oligosaccharide) light: ANSFLEELRQGSLERECIEEICDFEEAKEIFEDVDDTLAFWSKHVDGDQCLVLPLEHPCASLCCGHGTCIDGIGSFSCDCRSGWEGRFCQREVSFLNCSLDNGGCTHYCLEEVGWRRCSCAPGYKLGDDLLQCHPAVKFPCGRPWKRMEKKRSHL heavy: LIDGKMTRRGDSPWQVVLLDSKKKSACGAVLIHPSWVLTAAHCMDESKKLLVRLGEYDLRRWEKWELDLDIKEVFVHPNYSKSTSDNDIALLHLAQPATLSQTIVPICLPDSGLAERELNQAGQETLVTGWGYHSSREKEAKRNRTFVLNFIKIPVVPHNECSEVMSNMVSENMLCAGILGDRQDACEGDSGGPMVASFHGTWFLVGLVSWGEGCGLLHNYGVYTKVSRYLDWIHGHIRDKEAPQKSWAP",> 20,8.5
"activated human protein C derivative H10Q:S11G:Q32E:N33D:L194S, P04070 43-197; P04070 212-461 (enzyme, here or on the partner: Asn-linked oligosaccharides; gamma-carboxy-glutamates in the gla-domain; one erythro-beta-hydroxy-Asp; Asn-linked oligosaccharide) light: ANSFLEELRQGSLERECIEEICDFEEAKEIFEDVDDTLAFWSKHVDGDQCLVLPLEHPCASLCCGHGTCIDGIGSFSCDCRSGWEGRFCQREVSFLNCSLDNGGCTHYCLEEVGWRRCSCAPGYKLGDDLLQCHPAVKFPCGRPWKRMEKKRSHL heavy: LIDGKMTRRGDSPWQVVLLDSKKKSACGAVLIHPSWVLTAAHCMDESKKLLVRLGEYDLRRWEKWELDLDIKEVFVHPNYSKSTTDNDIALLHLAQPATLSQTIVPICLPDSGLAERELNQAGQETLVTGWGYHSSREKEAKRNRTFVLNFIKIPVVPHNECSEVMSNMVSENMLCAGILGDRQDACEGDSGGPMVASFHGTWFLVGLVSWGEGCGLLHNYGVYTKVSRYLDWIHGHIRDKEAPQKSWAP",8.5,5.9

# Reference: patent US20030207435A1
